Experiment in all cases: SPR
Experiment [1] concerns the target T1, wild-type KRM1ECD as immobilised for SPR (human, UniProt Q96MU8 21-392).
T1 chain: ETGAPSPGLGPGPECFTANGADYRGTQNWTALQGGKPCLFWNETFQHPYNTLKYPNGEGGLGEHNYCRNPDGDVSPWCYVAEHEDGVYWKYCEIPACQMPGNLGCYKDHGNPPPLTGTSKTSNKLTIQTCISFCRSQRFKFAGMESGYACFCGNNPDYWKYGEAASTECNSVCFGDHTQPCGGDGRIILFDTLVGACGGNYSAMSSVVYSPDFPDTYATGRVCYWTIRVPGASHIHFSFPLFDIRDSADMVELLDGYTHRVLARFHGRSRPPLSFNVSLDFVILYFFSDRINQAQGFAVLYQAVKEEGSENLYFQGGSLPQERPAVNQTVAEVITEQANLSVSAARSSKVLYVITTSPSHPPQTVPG

Experiment [2] has as its target T1, wild-type KRM1ECD as immobilised for SPR.
Experiment [3] deals with T2, GlycoCUB mutant of KRM1ECD (309NQA311→NQS, N-glycan at N309) (human, UniProt Q96MU8 21-392, 309NQA311→NQS, additional N-glycan at N309).
T2 sequence: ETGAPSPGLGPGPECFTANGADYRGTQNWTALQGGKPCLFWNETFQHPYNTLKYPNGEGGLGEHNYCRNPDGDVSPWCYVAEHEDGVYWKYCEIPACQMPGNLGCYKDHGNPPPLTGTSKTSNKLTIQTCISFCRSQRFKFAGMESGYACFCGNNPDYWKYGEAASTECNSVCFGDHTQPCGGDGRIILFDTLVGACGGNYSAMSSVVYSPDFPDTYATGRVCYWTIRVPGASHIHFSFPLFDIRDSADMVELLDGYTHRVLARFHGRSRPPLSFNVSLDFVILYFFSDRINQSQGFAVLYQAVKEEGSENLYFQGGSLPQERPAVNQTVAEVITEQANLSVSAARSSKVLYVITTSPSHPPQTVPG

Experiment [4] deals with T3, LRP6_(PE1PE2) fragment.
T3 chain: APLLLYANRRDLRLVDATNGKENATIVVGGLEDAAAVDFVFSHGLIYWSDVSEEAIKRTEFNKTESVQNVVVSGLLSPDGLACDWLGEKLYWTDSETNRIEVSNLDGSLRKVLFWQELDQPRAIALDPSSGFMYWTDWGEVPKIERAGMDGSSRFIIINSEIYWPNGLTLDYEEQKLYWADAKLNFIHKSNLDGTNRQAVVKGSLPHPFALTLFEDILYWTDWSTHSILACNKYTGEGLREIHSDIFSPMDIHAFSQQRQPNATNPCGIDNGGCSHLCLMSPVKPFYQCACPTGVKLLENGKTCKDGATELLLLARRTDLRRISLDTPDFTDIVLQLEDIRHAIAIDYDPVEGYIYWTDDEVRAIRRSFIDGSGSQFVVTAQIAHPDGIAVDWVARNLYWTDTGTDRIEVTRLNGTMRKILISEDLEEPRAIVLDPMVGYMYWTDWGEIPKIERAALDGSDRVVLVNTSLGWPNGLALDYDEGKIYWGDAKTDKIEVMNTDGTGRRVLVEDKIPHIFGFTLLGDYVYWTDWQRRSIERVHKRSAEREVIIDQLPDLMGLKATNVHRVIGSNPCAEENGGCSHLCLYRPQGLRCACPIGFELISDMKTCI
The conditions noted are these: chain shown with the change; 25 µM LRP6PE1PE2 (highest concentration of the titration); parent: est. 100; read off a plot.

Read-outs that look alike come from different tables or passages of the source.

B1: LRP6_(PE1PE2) fragment (domain or fragment)
chain: APLLLYANRRDLRLVDATNGKENATIVVGGLEDAAAVDFVFSHGLIYWSDVSEEAIKRTEFNKTESVQNVVVSGLLSPDGLACDWLGEKLYWTDSETNRIEVSNLDGSLRKVLFWQELDQPRAIALDPSSGFMYWTDWGEVPKIERAGMDGSSRFIIINSEIYWPNGLTLDYEEQKLYWADAKLNFIHKSNLDGTNRQAVVKGSLPHPFALTLFEDILYWTDWSTHSILACNKYTGEGLREIHSDIFSPMDIHAFSQQRQPNATNPCGIDNGGCSHLCLMSPVKPFYQCACPTGVKLLENGKTCKDGATELLLLARRTDLRRISLDTPDFTDIVLQLEDIRHAIAIDYDPVEGYIYWTDDEVRAIRRSFIDGSGSQFVVTAQIAHPDGIAVDWVARNLYWTDTGTDRIEVTRLNGTMRKILISEDLEEPRAIVLDPMVGYMYWTDWGEIPKIERAALDGSDRVVLVNTSLGWPNGLALDYDEGKIYWGDAKTDKIEVMNTDGTGRRVLVEDKIPHIFGFTLLGDYVYWTDWQRRSIERVHKRSAEREVIIDQLPDLMGLKATNVHRVIGSNPCAEENGGCSHLCLYRPQGLRCACPIGFELISDMKTCI
Consider B1, for which, in experiment [1], the Kd is 18900 nM.

B2: full-length DKK1 (ligand)
chain: TLNSVLNSNAIKNLPPPLGGAAGHPGSAVSAAPGILYPGGNKYQTIDNYQPYPCAEDEECGTDEYCASPTRGGDAGVQICLACRKRRKRCMRHAMCCPGNYCKNGICVSSDQNHFRGEIEETITESFGNDHSTLDGYSRRTTLSSKMYHTKGQEGSVCLRSSDCASGLCCARHFWSKICKPVLKEGQVCTKHRRKGSHGLEIFQRCYCGEGLSCRIQKDHHQASNSSRLHTCQRH
For the molecule B2, the Kd in experiment [2] amounted to 1200 nM; in experiment [3] it was 1300 nM.

B3: SUMO-DKK1_(Linker-CRD2), SUMO fusion as SPR analyte (domain or fragment)
chain: SDQNHFRGEIEETITESFGNDHSTLDGYSRRTTLSSKMYHTKGQEGSVCLRSSDCASGLCCARHFWSKICKPVLKEGQVCTKHRRKGSHGLEIFQRCYCGEGLSCRIQKDHHQASNSSRLHTCQRH
B3 displayed a Kd in experiment [2] of 400 nM.

B4: wild-type KRM1ECD as immobilised for SPR, Q96MU8 A311S (protein)
chain: ETGAPSPGLGPGPECFTANGADYRGTQNWTALQGGKPCLFWNETFQHPYNTLKYPNGEGGLGEHNYCRNPDGDVSPWCYVAEHEDGVYWKYCEIPACQMPGNLGCYKDHGNPPPLTGTSKTSNKLTIQTCISFCRSQRFKFAGMESGYACFCGNNPDYWKYGEAASTECNSVCFGDHTQPCGGDGRIILFDTLVGACGGNYSAMSSVVYSPDFPDTYATGRVCYWTIRVPGASHIHFSFPLFDIRDSADMVELLDGYTHRVLARFHGRSRPPLSFNVSLDFVILYFFSDRINQSQGFAVLYQAVKEEGSENLYFQGGSLPQERPAVNQTVAEVITEQANLSVSAARSSKVLYVITTSPSHPPQTVPG
As for B4, the response (response units) in experiment [4] was -20.

Values taken from paper PMC5014086 (2016).
